Measured values from patent US20100144634A1 (published 2010).

Assays:
[1] = target: B-domainless derivative of human factor VIII, FVIII-SQ, P00451
[2] = target: T1, human factor VIII derivative lacking the entire B domain and acidic region a3 (741-1689), FVIII-2RKR, P00451
T1 chain 1: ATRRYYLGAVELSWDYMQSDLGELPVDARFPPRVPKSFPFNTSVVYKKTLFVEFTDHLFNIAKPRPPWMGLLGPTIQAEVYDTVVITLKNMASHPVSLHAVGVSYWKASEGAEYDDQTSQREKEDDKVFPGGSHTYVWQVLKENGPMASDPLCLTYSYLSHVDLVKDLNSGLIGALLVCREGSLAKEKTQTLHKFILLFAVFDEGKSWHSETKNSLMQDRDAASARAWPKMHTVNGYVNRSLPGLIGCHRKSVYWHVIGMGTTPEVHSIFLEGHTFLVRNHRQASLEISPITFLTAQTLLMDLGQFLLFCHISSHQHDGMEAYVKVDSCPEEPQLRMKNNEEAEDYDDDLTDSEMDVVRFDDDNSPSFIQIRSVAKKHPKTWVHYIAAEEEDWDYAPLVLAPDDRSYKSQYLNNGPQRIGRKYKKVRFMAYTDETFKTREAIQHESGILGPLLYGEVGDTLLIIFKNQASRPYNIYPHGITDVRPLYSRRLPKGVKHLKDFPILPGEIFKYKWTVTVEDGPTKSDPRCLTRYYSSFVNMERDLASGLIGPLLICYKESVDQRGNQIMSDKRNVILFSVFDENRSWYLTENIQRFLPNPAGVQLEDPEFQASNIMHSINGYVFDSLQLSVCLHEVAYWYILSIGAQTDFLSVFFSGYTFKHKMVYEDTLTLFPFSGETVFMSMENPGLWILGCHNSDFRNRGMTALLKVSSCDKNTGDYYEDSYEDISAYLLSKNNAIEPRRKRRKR
T1 chain 2: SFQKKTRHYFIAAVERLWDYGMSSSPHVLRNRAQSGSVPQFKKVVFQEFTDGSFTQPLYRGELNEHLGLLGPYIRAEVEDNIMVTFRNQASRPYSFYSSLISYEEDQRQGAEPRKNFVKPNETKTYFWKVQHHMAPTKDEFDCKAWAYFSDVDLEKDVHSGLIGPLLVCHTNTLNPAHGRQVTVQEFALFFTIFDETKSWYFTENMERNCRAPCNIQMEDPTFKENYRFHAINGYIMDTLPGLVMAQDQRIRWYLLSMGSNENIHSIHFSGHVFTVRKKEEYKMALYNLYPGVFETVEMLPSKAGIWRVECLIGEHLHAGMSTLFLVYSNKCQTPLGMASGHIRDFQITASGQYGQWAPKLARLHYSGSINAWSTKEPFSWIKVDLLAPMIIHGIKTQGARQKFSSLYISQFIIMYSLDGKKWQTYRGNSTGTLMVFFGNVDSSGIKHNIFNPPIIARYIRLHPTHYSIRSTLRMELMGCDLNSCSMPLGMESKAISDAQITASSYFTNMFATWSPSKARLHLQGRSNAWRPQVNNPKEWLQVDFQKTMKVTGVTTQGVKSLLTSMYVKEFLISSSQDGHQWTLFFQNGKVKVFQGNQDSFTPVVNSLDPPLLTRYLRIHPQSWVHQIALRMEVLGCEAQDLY

[3] = target: recombinant human full-length coagulation factor VIII, P00451
[4] = target: T2, von Willebrand factor (VWF), purified plasma-derived, multimeric, native (UniProt P04275 764-2813); assay: SPR (BIAcore), VWF injected under flow over immobilised FL-A13, equilibrium fit, in the presence of 10 mM EDTA
T2 construct: mature; human is implied; also called pvWF; plasma VWF
Method: (§1) Approximately 2,000 to 8,000 response units (RU) (2˜10 ng/mm²) of purified recombinant proteins were covalently attached onto the activated CM5 chip surface. The control surface was activated similarly, but blocked by same amount of BSA (Sigma, St. Louis, Mo.). The reactive groups on the dextran surface were blocked by injection of 35 μl of 1 M ethanolamine (pH 8.5) at flow rate of 5 μl per min for 7 min. Then, purified plasma VWF at various concentrations (0-250 μg/ml or 0-1,000 nM as in FIG. 3; 0-125 μg/ml or 0-500 nM as in FIG. 4) in 10 mM HEPES, 150 mM NaCl, pH 7.5 containing 0.005% Tween 20 and 2 mg/ml BSA (HBS-T) were injected and passed over the surface at injection rate 10 to 100 μl/min or 20 μl/min for 3-5 min. The HBS-T replaced the protein solution and continued to flow for approximately 4 min; further washing with HBS-T for 20-30 min regenerated the surfaces prior to the next injection. The dissociation constants, KD (S) at the equilibrium were determined by fitting the data from the binding isotherm using a non-linear regression curve on the PRISM4 software (GraphPad Software, Inc., San Diego, Calif.).
Fitting the data directly using BIAcore evaluation software, although it is relatively easy, may overestimate the binding affinity between VWF and ADAMTS13 due to the heterogeneity of VWF molecules. […]

[5] = target: T3, von Willebrand factor pre-denatured with 1.5 M guanidine-HCl at 37 C for two hours (UniProt P04275 764-2813); assay: SPR (BIAcore), guanidine-HCl denatured VWF injected over immobilised FL-A13, equilibrium fit
T3 construct: mature; Same polypeptide as m1; also called VWF**; denatured VWF

[6] = target: T2, von Willebrand factor (VWF), purified …; assay: SPR (BIAcore), VWF injected under flow over FL-A13 immobilised on CM5, equilibrium fit, no EDTA
Method: as §1, with “Briefly, the surface of a carboxymethylated dextran (CM5) chip was activated by injection of 35 μl mixture (1:1, vol:vol) of 0.4 M 1-ethyl-3-(3-dimethylaminopropyl) carbodiimide and 0.1 M N-hydroxysuccinimide according to manufacturer's instruction (BIAcore, Uppsala, Sweden). Approximately” for “Approximately”, “The HBS-T replaced the protein solution and continued to flow for approximately 4 min; further washing with HBS-T for 20-30 min regenerated the surfaces prior to the next injection.” left out, “Calif.). […]” for “Calif.).”

- Kd [4]: 77 nM
- Kd [5]: 83 nM
- Kd [6]: 50 nM
B1: full-length ADAMTS13, recombinant, C-terminal V5-His (enzyme, UniProt Q76LX8 75-1427, looked up, not shown: small tags and cut ends)
chain: AAGGILHLELLVAVGPDVFQAHQEDTERYVLTNLNIGAELLRDPSLGAQFRVHLVKMVILTEPEGAPNITANLTSSLLSVCGWSQTINPEDDTDPGHADLVLYITRFDLELPDGNRQVRGVTQLGGACSPTWSCLITEDTGFDLGVTIAHEIGHSFGLEHDGAPGSGCGPSGHVMASDGAAPRAGLAWSPCSRRQLLSLLSAGRARCVWDPPRPQPGSAGHPPDAQPGLYYSANEQCRVAFGPKAVACTFAREHLDMCQALSCHTDPLDQSSCSRLLVPLLDGTECGVEKWCSKGRCRSLVELTPIAAVHGRWSSWGPRSPCSRSCGGGVVTRRRQCNNPRPAFGGRACVGADLQAEMCNTQACEKTQLEFMSQQCARTDGQPLRSSPGGASFYHWGAAVPHSQGDALCRHMCRAIGESFIMKRGDSFLDGTRCMPSGPREDGTLSLCVSGSCRTFGCDGRMDSQQVWDRCQVCGGDNSTCSPRKGSFTAGRAREYVTFLTVTPNLTSVYIANHRPLFTHLAVRIGGRYVVAGKMSISPNTTYPSLLEDGRVEYRVALTEDRLPRLEEIRIWGPLQEDADIQVYRRYGEEYGNLTRPDITFTYFQPKPRQAWVWAAVRGPCSVSCGAGLRWVNYSCLDQARKELVETVQCQGSQQPPAWPEACVLEPCPPYWAVGDFGPCSASCGGGLRERPVRCVEAQGSLLKTLPPARCRAGAQQPAVALETCNPQPCPARWEVSEPSSCTSAGGAGLALENETCVPGADGLEAPVTEGPGSVDEKLPAPEPCVGMSCPPGWGHLDATSAGEKAPSPWGSIRTGAQAAHVWTPAAGSCSVSCGRGLMELRFLCMDSALRVPVQEELCGLASKPGSRREVCQAVPCPARWQYKLAACSVSCGRGVVRRILYCARAHGEDDGEEILLDTQCQGLPRPEPQEACSLEPCPPRWKVMSLGPCSASCGLGTARRSVACVQLDQGQDVEVDEAACAALVRPEASVPCLIADCTYRWHVGTWMECSVSCGDGIQRRRDTCLGPQAQAPVPADFCQHLPKPVTVRGCWAGPCVGQGTPSLVPHEEAAAPGRTTATPAGASLEWSQARGLLFSPAPQPRRLLPGPQENSVQSSACGRQHLEPTGTIDMRGPGQADCAVAIGRPLGEVVTLRVLESSLNCSAGDMLLLWGRLTWRKMCRKLLDMTFSSKTNTLVVRQRCGRPGGGVLLRYGSQLAPETFYRECDMQLFGPWGEIVSPSLSPATSNAGGCRLFINVAPHARIAIHALATNMGAGTEGANASYILIRDTHSLRTTAFHGQQVLYWESESSQAEMEFSEGFLKAQASLRGQYWTLQSWVPEMQDPQSWKGKEGT
notes: mature; also called FL-A13; FL-AD13
- increase of the initial rate of cleavage of FRETS-vWF73 and GST-vWF73 by ADAMTS13 [1]: by a factor of 2 or 3
- increase of the initial rate of cleavage of FRETS-vWF73 and GST-vWF73 by ADAMTS13 [2]: by a factor of 2 or 3
- increase of the initial rate of cleavage of FRETS-vWF73 and GST-vWF73 by ADAMTS13 [3]: by a factor of 2 or 3
